Results reported in PMC2173223 (The Journal of Cell Biology, 2002).

Target: T1, Tim13p (recombinant, co-expressed with Tim8p in E. coli) (S. cerevisiae, UniProt P53299 1-105)
T1 sequence (looked up): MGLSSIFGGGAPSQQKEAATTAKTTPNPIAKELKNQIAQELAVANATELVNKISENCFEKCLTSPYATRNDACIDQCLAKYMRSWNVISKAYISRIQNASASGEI
Test: quantitative amino acid analysis

B1: Tim8p (recombinant, co-expressed with Tim13p in E. coli) (natural protein, S. cerevisiae, UniProt P57744 1-87, looked up)
chain: MSSLSTSDLASLDDTSKKEIATFLEGENSKQKVQMSIHQFTNICFKKCVESVNDSNLSSQEEQCLSNCVNRFLDTNIRIVNGLQNTR
stoichiometry N: 1 molar ratio
